Hetero-FRET efficiency data for one substance are collected here from PMC9596428.

Assay [1] concerns the target mVenus-tagged CaMKIIα holoenzyme (mVenus-mCaMKIIα), wild type (mouse) (UniProt P11798). The assay can be described thus: FRET or BRET; in vitro time-lapse binary-FRET (mVenus lifetime for hetero-FRET to mCherry, anisotropy for homo-FRET); V-CaMKII homogenate (15-20 nM holoenzyme) with 10 µM purified NR2B fragment in 1x kinase buffer, 1 mM DTT, 1 mM CaCl2, 1 mM ATP, 1 mM MgCl2, 5 µM calmodulin; room temperature; followed over 3 h.

Assay [2] addresses mVenus-tagged CaMKIIα K42R mutant holoenzyme (mouse) (UniProt P11798). Described as above.

On to “mCherry-tagged NR2B binding fragment (6His-mCherry-Flag-NR2B 1265-1320) (from UniProt Q13224 1265-1320) (domain or fragment)”, for which the hetero-FRET efficiency was found to be 11.9% in assay [1] and 12.6% in assay [2].
